Assay results reported in patent US20250257143A1 (FORTE SUBSIDIARY, published 2025).

T1: huCD122-HIS (ARCO Bio | Cat No. CD2-H5221) (human, UniProt P14784 27-239)
T1 construct: Bought analyte of the BLI assay; also called human CD122; not shown: His tag
T1 sequence (looked up): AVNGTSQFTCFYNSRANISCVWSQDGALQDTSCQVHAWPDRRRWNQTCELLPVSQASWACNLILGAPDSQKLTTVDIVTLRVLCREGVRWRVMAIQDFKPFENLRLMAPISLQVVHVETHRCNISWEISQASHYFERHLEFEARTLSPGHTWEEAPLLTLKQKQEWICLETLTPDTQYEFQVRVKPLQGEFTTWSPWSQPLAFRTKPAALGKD


Tests used:
[1] = target: T1, huCD122-HIS (ARCO Bio | Cat No. …); experiment: BLI Octet, antibody captured on AHC sensor, huCD122-His analyte, 1:1 fit
Experimental: (§1) Based on Bio-Layer Interferometry (BLI), the Octet® BLI system is a fluidics-free instrument platform that enables real-time, label-free analysis for the determination of kinetics, affinity and antibody/protein quantitation. Binding experiments were performed on Octet HTX at 25° C. The analyte used was huCD122-HIS (ARCO Bio | Cat No. CD2-H5221) at a molecular weight of 25.4 kDa. The antibodies were loaded onto Anti-human Fc capture (AHC) sensors. The loaded sensors were dipped into serial dilutions of huCD122-His (Starting at 20 nM, 1:3 dilution, 4 points). Reference sample well (buffer) was used for data analysis. Kinetic constants were calculated using a monovalent (1:1) binding model. The assay buffer used was PBS with 0.1% BSA, […], pH 7.2. The regeneration buffer used was 10 mM Glycine buffer (pH 1.7). The four concentrations of huCD122-His used to determine anti-CD122 antibody binding and dissociation properties were 0.0 nM, 2.2 nM, 6.7 nM, and 20 nM. Sensorgram plots to display antibody binding characteristics were generated. The mouse parental chimera configurations in both IgG1 and IgG4 backbones (M5 IgG1 parental and M5 IgG4 parental) were tested as well as each combination of the humanized 3 HC and 3 LC variants in either an IgG1 or an IgG4 backbone.

[2] = target: T1, huCD122-HIS (ARCO Bio | Cat No. …); experiment: BLI Octet, antibody captured on AHC sensor, huCD122-His analyte, 1:1 fit; second batch
Experimental: as §1

[3] = target: T1, huCD122-HIS (ARCO Bio | Cat No. …); experiment: BLI Octet; reference: parental chimeras (G1, G11)
Experimental: as §1

Binder	Kd [1] [nM]	Response [1]	koff [1] [s⁻¹]	kon [1] [M⁻¹ s⁻¹]	Kd [2] [nM]	Response [2]	koff [2] [s⁻¹]	kon [2] [M⁻¹ s⁻¹]	fold change in KD against the parental chimera [3] [fold]
G15 (antibody, human IgG4 S228P, kappa, Humanized, human IgG4 (S228P), kappa) heavy: not shown light: DIQMTQSPSSLSASVGDRVTITCRASQDISNFLNWYQQKPEGTLKLLIYYTSGLHSGVPSRFSGSGSGTDFTLTISSLQPEDVATYYCQQDNNHPYTFGQGTKLEIKRTVAAPSVFIFPPSDEQLKSGTASVVCLLNNFYPREAKVQWKVDNALQSGNSQESVTEQDSKDSTYSLSSTLTLSKADYEKHKVYACEVTHQGLSSPVTKSFNRGEC	1.37	0.337	0.000639	466000	1.33	0.312	0.000647	485000	< 3
G5 (antibody, human IgG1, kappa, Humanized, human IgG1 (G1M17), kappa) heavy: not shown light: DIQMTQSPSSLSASVGDRVTITCRASQDISNFLNWYQQKPEGTLKLLIYYTSGLHSGVPSRFSGSGSGTDFTLTISSLQPEDVATYYCQQDNNHPYTFGQGTKLEIKRTVAAPSVFIFPPSDEQLKSGTASVVCLLNNFYPREAKVQWKVDNALQSGNSQESVTEQDSKDSTYSLSSTLTLSKADYEKHKVYACEVTHQGLSSPVTKSFNRGEC	1.18	0.377	0.000581	494000	–	–	–	–	< 3
G8 (antibody, human IgG1, kappa, Humanized, human IgG1 (G1M17), kappa) heavy: not shown light: DIQMTQSPSSLSASVGDRVTITCRASQDISNFLNWYQQKPEGTLKLLIYYTSGLHSGVPSRFSGSGSGTDFTLTISSLQPEDVATYYCQQDNNHPYTFGQGTKLEIKRTVAAPSVFIFPPSDEQLKSGTASVVCLLNNFYPREAKVQWKVDNALQSGNSQESVTEQDSKDSTYSLSSTLTLSKADYEKHKVYACEVTHQGLSSPVTKSFNRGEC	0.943	0.389	0.000425	450000	–	–	–	–	< 3
G2 (antibody, human IgG1, kappa, Humanized, human IgG1 (G1M17), kappa) heavy: not shown light: DIQMTQSPSSLSASVGDRVTITCRASQDISNFLNWYQQKPEGTLKLLIYYTSGLHSGVPSRFSGSGSGTDFTLTISSLQPEDVATYYCQQDNNHPYTFGQGTKLEIKRTVAAPSVFIFPPSDEQLKSGTASVVCLLNNFYPREAKVQWKVDNALQSGNSQESVTEQDSKDSTYSLSSTLTLSKADYEKHKVYACEVTHQGLSSPVTKSFNRGEC	0.831	0.372	0.000409	492000	–	–	–	–	< 3
G1 (antibody, Chimeric: mouse parental variable domains in human IgG1 (G1M17 allotype), kappa; also called M5 IgG1 parental; G1 mouse parental IgG1 chimera) heavy: not shown light: DIQMTQTTSSLSASLGDRVTINCRASQDISNFLNWYQQKPDGTLKLLIYYTSGLHSGVPSRFSGSGSGTDYSLTISNLEEEDIATYFCQQDNNHPYTFGSGTKLEIKRTVAAPSVFIFPPSDEQLKSGTASVVCLLNNFYPREAKVQWKVDNALQSGNSQESVTEQDSKDSTYSLSSTLTLSKADYEKHKVYACEVTHQGLSSPVTKSFNRGEC	0.727	0.381	0.0004	549000	–	–	–	–	–

Now from value to binder:

Kd [1] [nM]	Response [1]	koff [1] [s⁻¹]	kon [1] [M⁻¹ s⁻¹]	Kd [2] [nM]	Response [2]	koff [2] [s⁻¹]	kon [2] [M⁻¹ s⁻¹]	fold change in KD against the parental chimera [3] [fold]	Binder
1.08	0.354	0.000488	451000	1.43	0.334	0.000646	452000	< 3	G12 (antibody, human IgG4 S228P, kappa, Humanized, human IgG4 (S228P), kappa) heavy: not shown light: DIQMTQSPSSLSASVGDRVTITCRASQDISNFLNWYQQKPEGTLKLLIYYTSGLHSGVPSRFSGSGSGTDFTLTISSLQPEDVATYYCQQDNNHPYTFGQGTKLEIKRTVAAPSVFIFPPSDEQLKSGTASVVCLLNNFYPREAKVQWKVDNALQSGNSQESVTEQDSKDSTYSLSSTLTLSKADYEKHKVYACEVTHQGLSSPVTKSFNRGEC
0.98	0.315	0.000453	462000	–	–	–	–	< 3	G18 (antibody, human IgG4 S228P, kappa, Humanized, human IgG4 (S228P), kappa) heavy: not shown light: DIQMTQSPSSLSASVGDRVTITCRASQDISNFLNWYQQKPEGTLKLLIYYTSGLHSGVPSRFSGSGSGTDFTLTISSLQPEDVATYYCQQDNNHPYTFGQGTKLEIKRTVAAPSVFIFPPSDEQLKSGTASVVCLLNNFYPREAKVQWKVDNALQSGNSQESVTEQDSKDSTYSLSSTLTLSKADYEKHKVYACEVTHQGLSSPVTKSFNRGEC
0.795	0.326	0.000423	532000	0.866	0.327	0.000491	567000	–	G11 (antibody, human IgG4 S228P, kappa, Chimeric: mouse parental variable domains in human IgG4 (S228P), kappa; also called M5 IgG4 parental; G11 mouse parental IgG4 chimera) heavy: not shown light: DIQMTQTTSSLSASLGDRVTINCRASQDISNFLNWYQQKPDGTLKLLIYYTSGLHSGVPSRFSGSGSGTDYSLTISNLEEEDIATYFCQQDNNHPYTFGSGTKLEIKRTVAAPSVFIFPPSDEQLKSGTASVVCLLNNFYPREAKVQWKVDNALQSGNSQESVTEQDSKDSTYSLSSTLTLSKADYEKHKVYACEVTHQGLSSPVTKSFNRGEC
